The values that follow come from patent US20250011804A1 (PIONEER HI BRED INTERNATIONAL, published 2025).

The labels stand for the following.
B1: ZmSF2 (other)
chain: MTRRNGCTIYVGNLPGDIREREVDDLFYKGRQCGLRMYGRIVEIDLKIPPRPPGFAFVEFEDARDAEDAIYGRDGYNFDGHRLRVELAHGGRGTSSFDRSSSYSSAGQRGASKRSDYRVMVTGLPSSASWQDLKDHMRRAGDVCFTDVYREAGATIGIADYTNYEDMKHAIRKLDDSEFRNAFSRTYVRVREYDARRSRSRSRGRNRSKSRSRSHSHSYSRSRSCSYSKSRSPRSRSASESKSPVKARSPSRSPPVSPRRDKSASRSPARSKSLPRSCSPAKSE
notes: Tested as prey fusions; also called Zea mays splicing factor 2; GRMZM2G170365
B2: Zmm28 transcription factor (other)
chain: MGRGPVQLRRIENKINRQVTFSKRRNGLLKKAHEISVLCDAEVALIVFSTKGKLYEYSSHSSMEGILERYQRYSFEERAVLNPSIEDQANWGDEYVRLKSKLDALQKSQRQLLGEQLSSLTIKELQQLEQQLDSSLKHIRSRKNQLMFDSISALQKKEKALTDQNGVLQKFMEAEKEKNKALMNAQLREQQNGASTSSPSLSPPIVPDSMPTLNIGPCQHRGAAESESEPSPAPAQANRGNLPPWMLRTVK
notes: MADS-box transcription factor; also called Zm00001d022088
B3: ZmSFT-LIKE (other)
chain: MGSVLLPTLRLKSEVDAAIRDTLDKVLVLRFGRATDATCLHLDDILDKSSWDISKFAMVALVDMDSEEIQVYIDYFDITLVPATIFFFNAHHMKMDSGTPDHTKWIGSFSSKQDFIDVVEAIFRGAMKGKLIVSCPLPPERIPRFQLLFKDV
notes: Tested as prey fusions; also called ZmSFT-like - Zea mays mRNA splicing factor thioredoxin-like U5 snRNP; GRMZM2G086779
B4: ZmZAG2 (other)
chain: MGRGRIEIKRIENNTSRQVTFCKRRNGLLKKAYELSVLCDAEVALIVFSSRGRLYEYANNSVKATIERYKKAHTVGSSSGPPLLEHNAQQFYQQESAKLRNQIQMLQNTNRHLVGDSVGNLSLKELKQLESRLEKGISKIRARKSELLAAEISYMAKRETELQNDHMTLRTKIEEGEQQLQQVTVARSVAAAAAAATNLELNPFLEMDTKCFFTGGPFATLDMKCFLPGSLQQMLEAQQRQMLATELNLGYQLAPPGSDAADNNPHHQF
notes: Tested as prey fusion (GAL4 AD in Y2H/HY1H, nGFP with 30x glutamine linker in BiFC); also called zag2 - Zea AGAMOUS homolog2; GRMZM2G160687
B5: ZmMADS7-LIKE (other)
chain: MGRGRVELKRIENKINRQVTFAKRRNGLLKKAYELSVLCDAEVALIVFSNRGKLYEFCSGPSITRTLERYEKNSYAGPDTAVQNKENELVQNSRNEYLKLKAKVDNLQRTQRNLLGEDLGSLGVKELDQLEKQIDSSLSHIRSTRTQHMLDQLTDLQRREQMMCEANKCLRRKLEETSNQVHGQVWEHGANLLLGYERHSSPQQAPSHVGNGLFFHPLEAAAEPTLQIGFAPEHMNNFMPAWLP
notes: Tested as prey fusions; also called zmm7 - Zea mays MADS7; GRMZM2G097059
B6: ZmMADS24 (other)
chain: MGRGKVVLQRIENKISRQVTFAKRRNGLLKKAYELSILCDAEVALVLFSHAGRLYQFSSSSNLLKTLERYQRYIYASADAAVPSSDQMQNNYQEYVKLKARVEVLQHSQRNLLGEDLALLSPSELDQLENQVDKTLKQIRSRKTQVLLDELCDLKRKEQMLQDANRVLKRKLGEFEAEAASPPQLAWQGEGGMLSHDPPQPEHFFQALESNPCLQPTYHTMDMNQQPVPAPGGCYPAWMS
notes: Tested as prey fusions; also called zmm24 - Zea mays MADS24; GRMZM2G087095
B7: ZmMADSL6 (other)
chain: MGRGRVELKRIENKINRQVTFAKRRNGLLKKAYELSVLCDAEVALIIFSNRGKLYEFSSTQSMPKTLEKYQKCSFAGPETALQNRENEQLKSSRNEYLKLKARVDNLQRTQRNLLGEDLESLGIKELEHLEKQLDSSLKHIRSTRTQHMVDQLTELQKKEQMFCEANKCLRRRLEESNQVIWQHAWEQSERHSEVQPQQLNGNNFFHPLDGAGEPTLQIGYPSEALTSSCMTTFLPPWLP
notes: positive control of the BiFC assay (full length); Tested as prey fusions; also called WT ZMMADSL6; full length ZmMADSL6

Data set [1] addresses B2. The data set can be described thus: BiFC, maize protoplasts, flow cytometry. As for the experimental part:
(§1) Potential interaction partners of ZMM28 were further tested in vivo with a bimolecular fluorescence complementation (BiFC) assay. Following transfection of maize protoplasts, fluorescence was measured indicating interaction between nGFP-Prey and cGFP-ZMM28 (Bait). As BiFC is prone to false-positive self-assembly independent of protein-protein interaction, flow cytometry was used to quantify the BiFC signal and reduce the occurrence of false positives. All signal comparisons were made to a negative control providing a baseline for self-assembly. The control was created by deleting 47 amino acids from the leucine zipper-like K-domain of ZMMADSL6, a protein interaction partner of ZMM28 identified from bioinformatics prediction and Y2H experiment. […] Of the 12 tested protein interactions, eight were confirmed via the BiFC assay with almost half the interactions confirmed positive in both BiFC and Y2H assays (Table 2a). Table 2: ZMM28 protein-protein interactions, transcription, direct targets.
(§2) Maize seedlings were germinated and grown in Fafard Super Fine Germination Mix for 6 days in a lighted growth chamber (30° C., 60% RH, 24 h light) and were transferred to a dark growth chamber (30° C., 60% RH, 0 h light) and grown for an additional 4 days to V1. Seedlings were sub-irrigated with deionized water. Maize protoplasts were isolated from these seedlings and were transiently transformed by PEG-mediated transfection as described by Yoo et al.63 with the addition of 0.6 M mannitol in the enzyme, WI, W5 and MMG solutions. Protoplasts were transfected with 10 pmol bait+10 pmol prey plasmid DNA per 3×10^4 cells. Protoplasts were incubated on a 12-well (1 mL WI) plate for 20 hours at RT before samples were analyzed.
(§3) BiFC signals were detected by flow cytometry performed using an Attune™ Flow Cytometer (Thermo Fisher Scientific, Waltham, MA, USA) with a Blue/Violet configuration (488 nm, 20 mW laser and a 405 nm, 50 mW laser).
(A flow cytometer gives signals particle by particle.)

Data set [2] deals with the molecule itself. Briefly: BiFC, maize protoplasts, flow cytometry. The protocol: as §1, §2, §3

On to B1, for which, in data set [1], the “BiFC positive cell count” value was 715 cells out of 10,000.
On to B2, for which the “BiFC positive cell count” value in data set [2] was 1010 cells out of 10,000.
Take B3: the “BiFC positive cell count” value in data set [1] is 2330 cells out of 10,000.
The same measure, in the same setting: in the case of B4 it was 125 cells out of 10,000.
Still for that read-out and setting: then B5, with 438 cells out of 10,000.
Still for that read-out and setting: in the case of B6 it was 2100 cells out of 10,000; in that of B7, 4060 cells out of 10,000.
